Results on 1 molecule are retold here after publication PMC12613123, “Fabrication of Disposable Thin-Film Electrodes via Shadow Mask Technique for Sensitive Point-of-Care Detection of C‑Reactive Protein, a Sepsis Biomarker”.

The target in this data set is T1, C-reactive protein (CRP) (UniProt P02741 19-224).
T1 sequence: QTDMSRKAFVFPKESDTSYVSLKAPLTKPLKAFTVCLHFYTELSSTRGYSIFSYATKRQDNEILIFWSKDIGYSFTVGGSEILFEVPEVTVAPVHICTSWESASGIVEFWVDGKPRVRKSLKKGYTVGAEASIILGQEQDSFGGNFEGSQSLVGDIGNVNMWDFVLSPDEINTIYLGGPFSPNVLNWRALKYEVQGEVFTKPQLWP
The experiment in a line: electrochemical aptasensor (CV, EIS); aptamer/MCH on gold thin-film electrode; ferro-/ferricyanide; CRP 0.02-0.9 ng/mL; Rct 1.78 to 2.8 kOhm; LOD 6.5 pg/mL (not a Kd); ferro-/ferricyanide redox couple; buffer, salt, pH and temperature not given in the held text (aptamer immobilization at 2-4 C). The following applies: chain copies: 5.

B1: CRP aptamer (44 nt) (ssDNA)
DNA: GCCTGTAAGGTGGTCGGTGTGGCGAGTGTGTTAGGAGAGATTGC
modifications: 5' HO-(CH2)6-S-S-(CH2)6 thiol linker (TCEP reduced), immobilized on gold with MCH backfill
On to B1, for which the binding result is reported as “binds”.
